These results are taken from PMC6616073 (Frontiers in Pharmacology, 2003).

Holding throughout (test): radioligand binding
Experiment [1] addresses T1, membrane-bound Torpedo californica nicotinic acetylcholine receptor (Torpedo californica).
T1 construct: also called T. californica nAChR; Torpedo nAChR
The following applies: one partner purified.

Experiment [2] has as its target T2, ligand-binding domain of the human nAChR α9 subunit (human, UniProt Q9UGM1 23-238).
T2 construct: also called α9 LBD; human α9 LBD
As to conditions: both partners purified.

Experiment [3] deals with T3, human α7 nicotinic acetylcholine receptor stably expressed in the rat pituitary tumor-derived cell line GH4C1 (human, UniProt P36544 23-502).
T3 construct: also called α7 nAChR; human α7 nAChR
T3 sequence (P36544 23-502): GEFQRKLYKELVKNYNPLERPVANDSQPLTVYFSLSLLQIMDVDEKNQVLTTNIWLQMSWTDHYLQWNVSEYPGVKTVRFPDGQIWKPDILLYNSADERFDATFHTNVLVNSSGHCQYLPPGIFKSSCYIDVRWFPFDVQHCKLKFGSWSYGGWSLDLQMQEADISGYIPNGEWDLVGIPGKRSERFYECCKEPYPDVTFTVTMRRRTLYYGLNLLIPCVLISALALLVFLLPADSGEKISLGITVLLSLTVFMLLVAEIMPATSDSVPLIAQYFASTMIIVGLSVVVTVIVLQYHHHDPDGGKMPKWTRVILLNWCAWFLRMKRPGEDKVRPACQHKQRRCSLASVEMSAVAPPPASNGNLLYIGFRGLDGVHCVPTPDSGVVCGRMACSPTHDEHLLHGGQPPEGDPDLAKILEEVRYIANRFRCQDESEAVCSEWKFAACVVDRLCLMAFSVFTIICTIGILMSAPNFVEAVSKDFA
The following applies: one partner purified.

Experiment [4] has as its target T3, human α7 nicotinic acetylcholine …. The following applies: one partner purified. This is another data set of the same source.

Positions of bridges follow the written chain, without caps; N, C: chain ends. No end group written: not given here.

T2 sequence (Q9UGM1 23-238): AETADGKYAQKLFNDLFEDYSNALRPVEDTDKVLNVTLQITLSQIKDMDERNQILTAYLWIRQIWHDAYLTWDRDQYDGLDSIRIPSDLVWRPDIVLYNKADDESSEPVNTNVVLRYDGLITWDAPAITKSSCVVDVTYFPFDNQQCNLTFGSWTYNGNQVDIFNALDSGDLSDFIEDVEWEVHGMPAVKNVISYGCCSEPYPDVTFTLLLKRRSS
T1 sequence (P02710 25-461 limits assumed, chain 1 of 4): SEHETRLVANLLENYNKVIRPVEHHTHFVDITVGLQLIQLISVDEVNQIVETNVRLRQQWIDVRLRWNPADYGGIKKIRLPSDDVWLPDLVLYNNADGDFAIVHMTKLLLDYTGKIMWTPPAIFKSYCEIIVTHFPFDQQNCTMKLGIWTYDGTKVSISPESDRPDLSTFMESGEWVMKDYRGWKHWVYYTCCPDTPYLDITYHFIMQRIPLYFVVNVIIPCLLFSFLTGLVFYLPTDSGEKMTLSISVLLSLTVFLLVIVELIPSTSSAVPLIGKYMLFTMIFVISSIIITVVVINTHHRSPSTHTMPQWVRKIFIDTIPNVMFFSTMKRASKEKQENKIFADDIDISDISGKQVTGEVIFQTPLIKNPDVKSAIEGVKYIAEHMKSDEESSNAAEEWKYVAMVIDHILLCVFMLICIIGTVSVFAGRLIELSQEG
T1 sequence (P02712 25-493 limits assumed, chain 2 of 4, further chain): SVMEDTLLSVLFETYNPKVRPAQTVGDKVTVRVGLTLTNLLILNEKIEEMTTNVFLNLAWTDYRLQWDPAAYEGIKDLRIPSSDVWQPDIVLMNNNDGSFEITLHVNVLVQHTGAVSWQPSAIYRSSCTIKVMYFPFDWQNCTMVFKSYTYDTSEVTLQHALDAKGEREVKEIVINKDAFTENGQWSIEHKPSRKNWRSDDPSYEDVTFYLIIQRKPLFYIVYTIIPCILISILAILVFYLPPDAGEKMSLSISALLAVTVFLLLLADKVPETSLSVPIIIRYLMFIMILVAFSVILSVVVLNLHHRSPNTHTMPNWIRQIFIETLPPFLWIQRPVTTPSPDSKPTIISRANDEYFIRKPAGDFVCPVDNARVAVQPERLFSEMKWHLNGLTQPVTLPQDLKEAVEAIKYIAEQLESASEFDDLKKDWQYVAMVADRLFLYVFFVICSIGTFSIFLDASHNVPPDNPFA
T1 sequence (P02714 18-506 limits assumed, chain 3 of 4, further chain): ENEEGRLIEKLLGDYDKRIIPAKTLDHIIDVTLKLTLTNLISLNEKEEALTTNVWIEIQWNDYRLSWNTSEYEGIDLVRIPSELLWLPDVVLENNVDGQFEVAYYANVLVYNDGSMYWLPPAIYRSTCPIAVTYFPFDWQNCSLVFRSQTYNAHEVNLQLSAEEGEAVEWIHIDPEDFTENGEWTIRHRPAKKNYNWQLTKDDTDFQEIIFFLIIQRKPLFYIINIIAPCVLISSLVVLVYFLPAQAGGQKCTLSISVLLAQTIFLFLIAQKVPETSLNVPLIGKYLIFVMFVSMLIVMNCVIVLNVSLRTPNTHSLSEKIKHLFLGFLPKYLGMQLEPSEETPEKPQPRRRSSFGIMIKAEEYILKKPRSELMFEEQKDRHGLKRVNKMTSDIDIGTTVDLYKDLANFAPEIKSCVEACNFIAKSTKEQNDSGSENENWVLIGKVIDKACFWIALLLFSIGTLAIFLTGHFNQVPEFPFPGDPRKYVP
T1 sequence (P02718 22-522 limits assumed, chain 4 of 4, further chain): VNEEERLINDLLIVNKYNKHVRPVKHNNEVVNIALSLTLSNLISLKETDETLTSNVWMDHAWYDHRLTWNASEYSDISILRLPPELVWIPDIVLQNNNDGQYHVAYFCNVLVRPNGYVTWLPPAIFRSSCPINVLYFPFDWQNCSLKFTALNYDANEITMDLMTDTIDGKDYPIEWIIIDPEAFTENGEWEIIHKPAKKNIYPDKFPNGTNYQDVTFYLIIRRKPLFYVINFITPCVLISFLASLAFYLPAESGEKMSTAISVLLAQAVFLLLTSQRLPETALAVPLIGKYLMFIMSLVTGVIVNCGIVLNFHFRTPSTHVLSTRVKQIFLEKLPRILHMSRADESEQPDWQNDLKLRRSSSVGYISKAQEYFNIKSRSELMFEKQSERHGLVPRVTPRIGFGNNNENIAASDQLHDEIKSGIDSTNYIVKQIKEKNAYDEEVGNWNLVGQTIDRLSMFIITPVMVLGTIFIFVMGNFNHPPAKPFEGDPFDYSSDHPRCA

The IC50 is the concentration that inhibits the measured activity by half. Read a high IC50 as a need for much substance. CKMVRHQRSPYEVVRRMC (disulfide 1-18): the IC50 in experiment [1] came out at 7.4 µM; in experiment [2], 41.7 µM; in experiment [3] it was 13.1 µM.

B1: Lynx1 short (3), shorter loop II fragment of human Lynx1 with terminal Cys, disulfide-cyclised (peptide)
peptide: CTRTYYTPTRMC
modifications: not fully specified (bridges); cysteine pairing not given here
notes: also called peptide 3; cyclic shorter form of Lynx1 fragment
Molecule B1 yielded a half-inhibitory concentration (IC50) in experiment [3] of 58.9 µM.

B2: Lynx1 short linear (4), shorter loop II fragment of human Lynx1 with free terminal Cys (peptide)
peptide: CTRTYYTPTRMC
notes: also called Lynx1 linear short (4); peptide 4
B2 displayed an IC50 in experiment [3] of 69.2 µM.

B3: Lynx1 (1), synthetic loop II fragment of human Lynx1 with Cys added at both termini, disulfide-cyclised (peptide)
peptide: CTTRTYYTPTRMKVSKC
modifications: not fully specified (bridges); cysteine pairing not given here
notes: also called Lynx1 fragment (1); peptide 1
In the case of B3, the IC50 in experiment [2] stood at 41.7 µM; in experiment [3] it was 173 µM; in experiment [4] it was 148 µM.

B4: Lynx1 linear (2), synthetic 15-membered loop II fragment of human Lynx1 (peptide)
peptide: TTRTYYTPTRMKVSK
notes: also called Lynx1 linear fragment (2); peptide 2
With B4, the IC50 in experiment [2] is 40.7 µM.
